# Reference: article PMC3745516
# Target: CTEN (UniProt Q8IZW8)
# Test: anti-Flag co-IP, anti-HA blot
# Conditions: reference: HA-c-Cbl wild type; sites Y774
substance,measurement,value
c-Cbl (from UniProt P22681) Y774F,binding against the reference,lost
